According to patent publication US9096832B2, “Differentiation of human embryonic stem cells” (LifeScan, Inc., priority 2007, dated 2015):

Tests used:
H9P55 cells = assay: Definitive endoderm on human fibronectin or […] (FACS, real-time PCR); assay type: cell-based; settings: fibronectin vs MATRIGEL coated plates
Protocol: H9P55 cells were grown and differentiated on human fibronectin or regular growth factor […]™ (BD Biosciences). 1 ml of DMEM/F12 (Invitrogen/GIBCO) containing 1 ug/ml of human fibronectin (R&D systems, MN) was added to each well of 6 well tissue culture treated dish. Alternatively, regular growth factor […]™ was diluted 1:10 in DMEM/F12 and 1 ml of diluted […]™ was added to each well of 6 well tissue culture treated dish. Cells were passed with collagenase. […] Real-time PCR results (FIG. 39) confirm that formation of definitive endoderm was equivalent on fibronectin and […]™ coated plates.

H9 cells = assay: Definitive endoderm after treatment with Wnt inhibitor DKK-1 (real-time PCR); assay type: cell-based, human; settings: 100 ng/ml DKK1 with 20 ng/ml Wnt3a and 100 ng/ml activin A
Protocol: To determine if the addition of Wnt-3a was causing the increase in differentiation, an inhibitor of Wnt-3 signaling was added to the cultures. […] H9 cells were cultured on plates coated with Growth Factor Reduced […] at a 1:30 dilution. The plates were coated with […] for 1 hr at room temperature.
At day 5, the cultures were analyzed by real time PCR for SOX-17, SOX-7, Alpha-fetal protein (AFP), CXCR4, Brychyury (Bry), gooscecoid (GSC), HNF-3 beta, GATA4, hTERT and Oct4. AFP and SOX-7 are regarded as visceral endoderm markers while GATA4, HNF-3beta and SOX-17 represent definite endoderm markers and GSC, Bry, and CXCR4 represent markers of primitive streak. hTERT and Oct-4 are markers for self renewal and pluripotency respectively.

[1] = test system: H9P53 embryonic stem cells; assay: Definitive endoderm on […]: combination of Wnt-3a, GSK-3B inhibitor, BMP-4; assay type: cell-based, human; settings: 25 ng/ml BMP-4 added to the DE protocol
Description: Results are expressed as fold increase over untreated cells. […] Results are expressed as fold increase over untreated cells.

H1P55 ES cells = assay: Definitive endoderm on […]: role of Wnt1 (real-time PCR); assay type: cell-based, human; settings: 20 ng/ml Wnt1 in the presence of 100 ng/ml AA
Protocol: The following combinations of WNT1+AA were tested:
a) 20 ng/ml of WNT1+100 ng/ml AA in 0.5% FBS+DM-F12 for days 1-2 followed by 2% FBS+DM-F12+100 ng/ml AA for day three, b) 20 ng/ml of WNT1+100 ng/ml AA in 0.5% FBS+DM-F12 for days 1-2 followed by 2% FBS+DM-F12+100 ng/ml AA for days 3-5, c) 10 ng/ml of WNT1+100 ng/ml AA in 0.5% FBS+DM-F12 for days 1-2 followed by 2% FBS+DMF12+100 ng/ml AA for day three, d) 10 ng/ml of WNT1+100 ng/ml AA in 0.5% FBS+DM-F12 for days 1-2 followed by 2% FBS+DM-F12+100 ng/ml AA for days 3-5, e) 20 ng/ml of WNT1+100 ng/ml AA in 0.5% FBS+DM-F12 for days 1-2 followed by 2% FBS+DM-F12+100 ng/ml AA+20 ng/ml of WNT1 for day three, f) 20 ng/ml of WNT1+100 ng/ml AA in 0.5% FBS+DM-F12 for days 1-2 followed by 2% FBS+DM-F12+100 ng/ml AA+20 ng/ml of WNT1 for days 3-5.

[2] = test system: pancreatic endoderm cells derived from human embryonic stem cells; assay: Passage and expansion of pancreatic endoderm cells in culture with FGF10 (Q-PCR); assay type: cell-based; settings: 50 ng/ml FGF10, 6 day culture period
Protocol: The low serum DMEM/F12 contained 0% (v/v) fetal bovine serum (FBS) on day 1, 0.5% (v/v) FBS on day two and 2% (v/v) FBS on each day thereafter. After four days of differentiation, the cells were cultured in low serum DMEM/F12 contained 2% (v/v) FBS, 1 μM retinoic acid and 50 ng/ml bFGF for a total of six more days. After the six days of differentiation, the cells were maintained in culture in low serum DMEM/F12 contained 2% (v/v) FBS in the presence of 50 ng/ml FGF10 for a total of 6 days. During the six-day culture period, the pancreatic endoderm cells were passaged twice and cell population-doubling time is about 36 to 48 hours during this 6-day culture. On days 0, 3, and 6 of culture, Q-PCR was used to measure the expression of marker genes indicative of pancreatic endoderm.

For fibronectin, the “formation of definitive endoderm (real-time PCR)” value (H9P55 cells) was “equivalent”.

B1: DKK1: Wnt Inhibitor DKK-1 (Dikkopf-1) (protein, UniProt O94907 32-266, looked up)
Dickkopf-related protein 1: TLNSVLNSNAIKNLPPPLGGAAGHPGSAVSAAPGILYPGGNKYQTIDNYQPYPCAEDEECGTDEYCASPTRGGDAGVQICLACRKRRKRCMRHAMCCPGNYCKNGICVSSDQNHFRGEIEETITESFGNDHSTLDGYSRRTTLSSKMYHTKGQEGSVCLRSSDCASGLCCARHFWSKICKPVLKEGQVCTKHRRKGSHGLEIFQRCYCGEGLSCRIQKDHHQASNSSRLHTCQRH
In the case of B1, the “expression level of differentiation markers (CXCR4, GATA4, HNF-3beta, SOX17, goosecoid)” value (H9 cells) is reported as “dramatically decrease to levels similar to that of untreated cells”.

B2: BMP-4: BMP-4 (Catalog#314-BP-010, R&D Systems, MN) (protein, UniProt P12644 293-408, looked up)
Bone morphogenetic protein 4: SPKHHSQRARKKNKNCRRHSLYVDFSDVGWNDWIVAPPGYQAFYCHGDCPFPLADHLNSTNHAIVQTLVNSVNSSIPKACCVPTELSAISMLYLDEYDKVVLKNYQEMVVEGCGCR
B2 was tested, and the “mesoderm marker BRY” value [1] was “induce formation of mesoderm marker BRY”.

B3: Wnt1: WNT-1 (PeproTech, NJ, Catalogue#120-17) (protein, UniProt P04628 28-370, looked up)
Proto-oncogene Wnt-1: ANSSGRWWGIVNVASSTNLLTDSKSLQLVLEPSLQLLSRKQRRLIRQNPGILHSVSGGLQSAVRECKWQFRNRRWNCPTAPGPHLFGKIVNRGCRETAFIFAITSAGVTHSVARSCSEGSIESCTCDYRRRGPGGPDWHWGGCSDNIDFGRLFGREFVDSGEKGRDLRFLMNLHNNEAGRTTVFSEMRQECKCHGMSGSCTVRTCWMRLPTLRAVGDVLRDRFDGASRVLYGNRGSNRASRAELLRLEPEDPAHKPPSPHDLVYFEKSPNFCTYSGRLGTAGTAGRACNSSSPALDGCELLCCGRGHRTRTQRVTERCNCTFHWCCHVSCRNCTHTRVLHECL
For B3, the “definitive endoderm markers (Bry, CXCR4, GSC, SOX17, HNF-3B, and GATA-4)” value (H1P55 ES cells) was “significant up regulation”.

B4: FGF10: fibroblast growth factor FGF10, 50 ng/ml (protein, UniProt O15520 38-208, looked up)
Fibroblast growth factor 10: QALGQDMVSPEATNSSSSSFSSPSSAGRHVRSYNHLQGDVRWRKLFSFTKYFLKIEKNGKVSGTKKENCPYSILEITSVEIGVVAVKAINSNYYLAMNKKGKLYGSKEFNNDCKLKERIEENGYNTYASFNWQHNGRQMYVALNGKGAPRRGQKTRRKNTSAHFLPMVVHS
In the case of B4, the “expression of pancreatic endoderm marker Pdx1” value [2] is reported as “maintained expression”.
